From patent US20190263934A1
Values belong to the substance of their own block, whether it stands above or below them.

Key:
[1] = target: biotinylated human FcRn (hFcRn; p51 subunit residues 24-297 with C-terminal Avi-tag, β2-m residues 21-119) (human) (UniProt P55899); assay: Biacore SPR, Biotin CAPture, pH 7.4, 1000 nM antibody, steady state
[2] = target: biotinylated human FcRn (hFcRn; p51 subunit residues 24-297 with C-terminal Avi-tag, β2-m residues 21-119) (human) (UniProt P55899); assay: Biacore SPR, human FcRn, pH 7.4, steady state
[3] = target: biotinylated human FcRn (hFcRn; p51 subunit residues 24-297 with C-terminal Avi-tag, β2-m residues 21-119) (human) (UniProt P55899); assay: Biacore SPR, human FcRn, pH 6.0 (column 'Affinity, pH 6.0 (nM)')
[4] = target: biotinylated human FcRn (hFcRn; p51 subunit residues 24-297 with C-terminal Avi-tag, β2-m residues 21-119) (human) (UniProt P55899); assay: Biacore SPR, Biotin CAPture of biotinylated human FcRn, pH 6.0
[5] = target: rFcRn (rat) (UniProt P13599); assay: Biacore SPR, pH 7.4, single antibody concentration, steady state
Target sequence in this assay (P13599 23-298, form in doubt, chain 1 of 2): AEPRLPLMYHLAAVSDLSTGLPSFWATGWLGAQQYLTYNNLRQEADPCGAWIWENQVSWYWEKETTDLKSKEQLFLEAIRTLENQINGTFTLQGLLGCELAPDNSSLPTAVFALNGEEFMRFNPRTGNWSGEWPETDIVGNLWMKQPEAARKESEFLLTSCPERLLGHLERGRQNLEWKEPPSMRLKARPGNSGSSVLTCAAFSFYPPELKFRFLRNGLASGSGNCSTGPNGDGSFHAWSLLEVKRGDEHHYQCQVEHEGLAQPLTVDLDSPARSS
Target sequence in this assay (P07151 21-119, form in doubt, chain 2 of 2, further chain): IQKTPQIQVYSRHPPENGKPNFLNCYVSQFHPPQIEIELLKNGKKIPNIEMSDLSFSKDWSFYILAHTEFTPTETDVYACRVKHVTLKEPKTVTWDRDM

[6] = target: biotinylated hFcRn (human) (UniProt P55899); assay: as above
[7] = target: rFcRn (rat) (UniProt P13599); assay: Biacore SPR, pH 6.0, bivalent fit
Target sequence in this assay (P13599 23-298, form in doubt, chain 1 of 2): as the sequence (P13599 23-298, form in doubt, chain 1 of 2) above
Target sequence in this assay (P07151 21-119, form in doubt, chain 2 of 2, further chain): as the sequence (P07151 21-119, form in doubt, chain 2 of 2, further chain) above

[8] = target: biotinylated hFcRn (human) (UniProt P55899); assay: Biacore SPR, pH 6.0, bivalent fit
[9] = target: Human CD16a (FcγRIIIa) V158 with C-terminal HPC4 tag (human) (UniProt P08637); assay: Biacore SPR, captured HPC4-tagged FcγRIIIa-V158, steady-state fit
Chain of Human CD16a (FcγRIIIa) V158 with C-terminal HPC4 tag (human) (P08637 17-208 F176V): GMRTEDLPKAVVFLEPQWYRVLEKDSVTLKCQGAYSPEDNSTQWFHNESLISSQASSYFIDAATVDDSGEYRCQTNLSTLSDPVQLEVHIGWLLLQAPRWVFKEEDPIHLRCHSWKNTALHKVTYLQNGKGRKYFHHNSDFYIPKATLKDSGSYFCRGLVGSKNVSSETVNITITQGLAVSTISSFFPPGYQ

[10] = target: rFcRn (rat) (UniProt P13599); assay: SPR Biacore, pH 6.0
Target sequence in this assay (P13599 23-298 limits assumed, form in doubt, chain 1 of 2): as the sequence (P13599 23-298, form in doubt, chain 1 of 2) above
Target sequence in this assay (P07151 21-119 limits assumed, form in doubt, chain 2 of 2, further chain): as the sequence (P07151 21-119, form in doubt, chain 2 of 2, further chain) above

[11] = target: rFcRn (rat) (UniProt P13599); assay: SPR Biacore, pH 7.4, 1000 nM antibody
Target sequence in this assay (P13599 23-298 limits assumed, form in doubt, chain 1 of 2): as the sequence (P13599 23-298, form in doubt, chain 1 of 2) above
Target sequence in this assay (P07151 21-119 limits assumed, form in doubt, chain 2 of 2, further chain): as the sequence (P07151 21-119, form in doubt, chain 2 of 2, further chain) above

[12] = target: biotinylated hFcRn (human) (UniProt P55899); assay: SPR Biacore, pH 7.4, 1000 nM antibody
[13] = target: rFcRn (rat) (UniProt P13599); assay: SPR Biacore, pH 7.4
Target sequence in this assay (P13599 23-298 limits assumed, form in doubt, chain 1 of 2): as the sequence (P13599 23-298, form in doubt, chain 1 of 2) above
Target sequence in this assay (P07151 21-119 limits assumed, form in doubt, chain 2 of 2, further chain): as the sequence (P07151 21-119, form in doubt, chain 2 of 2, further chain) above

[14] = target: biotinylated hFcRn (human) (UniProt P55899); assay: SPR Biacore, pH 6.0
[15] = target: biotinylated hFcRn (human) (UniProt P55899); assay: SPR Biacore, pH 6.0; remark: listed apart in the source
[16] = target: biotinylated human FcRn (hFcRn; p51 subunit residues 24-297 with C-terminal Avi-tag, β2-m residues 21-119) (human) (UniProt P55899); assay: Biacore SPR, pH 6.0, apparent affinity
[17] = target: biotinylated human FcRn (hFcRn; p51 subunit residues 24-297 with C-terminal Avi-tag, β2-m residues 21-119) (human) (UniProt P55899); assay: Biacore SPR; pH 6.0 affinity (M^-1) over pH 7.4 steady state RU
[18] = target: biotinylated human FcRn (hFcRn; p51 subunit residues 24-297 with C-terminal Avi-tag, β2-m residues 21-119) (human) (UniProt P55899); assay: Biacore SPR; second ratio column (inverse of c7)
[19] = target: biotinylated human FcRn (hFcRn; p51 subunit residues 24-297 with C-terminal Avi-tag, β2-m residues 21-119) (human) (UniProt P55899); assay: Biacore SPR, pH 7.4, steady state, 1000 nM antibody
[20] = target: biotinylated hFcRn (human) (UniProt P55899); assay: SPR Biacore, pH 7.4
[21] = target: rFcRn (rat) (UniProt P13599); assay: BLI Octet, pH 6.0, purified antibody
Target sequence in this assay (P13599 23-298 limits assumed, form in doubt, chain 1 of 2): as the sequence (P13599 23-298, form in doubt, chain 1 of 2) above
Target sequence in this assay (P07151 21-119 limits assumed, form in doubt, chain 2 of 2, further chain): as the sequence (P07151 21-119, form in doubt, chain 2 of 2, further chain) above

- Kd [7]: 6310 nM
- Kd [10]: 6310 nM
- Steady State RU [11]: 27.7 RU
- Steady State RU [12]: 5.7 RU
Substance: mAb1 E380C (antibody)

- Steady State RU (pH 7.4) [5]: 24.8 RU
- Steady State RU (pH 7.4) [6]: 18.3 RU
- Kd [7]: 74 nM
- koff [7]: 0.0066 s⁻¹
- kon [7]: 91000 M⁻¹ s⁻¹
- Kd [8]: 272 nM
- koff [8]: 0.05 s⁻¹
- kon [8]: 193000 M⁻¹ s⁻¹
- Kd [9]: 369 nM
Substance: mAb1 LS (M428L/N434S) (antibody)

- Steady State RU (pH 7.4) [5]: 39.1 RU
- Steady State RU (pH 7.4) [6]: 10.7 RU
- Kd [7]: 9.5 nM
- koff [7]: 0.0013 s⁻¹
- kon [7]: 13000 M⁻¹ s⁻¹
- Kd [8]: 232 nM
- kon [8]: 38000 M⁻¹ s⁻¹
- Kd [9]: 600 nM
Substance: mAb1 MDQN (T256D/T307Q) (antibody)

- pH 7.4 RU [1]: 59.8 RU
- Ka [16]: 8.4e+07 M⁻¹
- Ratio (pH 6.0/pH 7.4) [17]: 1.42e+06
- Ratio (pH 7.4/pH 6.0) [18]: 7.02e-07
- Steady State Binding, pH 7.4 (RU) [19]: 59 RU
- Kd [4]: 18.1 nM
Substance: mAb1 MDWY variant (T256D/T307W/N434Y) (antibody)

- Steady State RU [13]: 23.2 RU
- Kd [7]: 86 nM
- Kd [8]: 6700 nM
- Kd [10]: 86 nM
- Kd [14]: 6700 nM
- Kd [15]: > 3000 nM
- Steady State RU [11]: 30.4 RU
Substance: mAb1 T256D (antibody)

- Steady State RU [13]: 17 RU
- Steady State RU [20]: 4.5 RU
- Kd [7]: 113 nM
- Kd [10]: 113 nM
- Kd [15]: > 3000 nM
- Steady State RU [11]: 23 RU
- Steady State RU [12]: 4.8 RU
Substance: mAb1 T256E (antibody)

- Kd [7]: 132 nM
- Kd [10]: 132 nM
- Steady State RU [11]: 23.1 RU
- Steady State RU [12]: 5.2 RU
Substance: mAb1 T307A (antibody)

Continued, substance first:

Substance: YTEKF benchmark (MST-HN variant; M252Y/S254T/T256E/H433K/N434F) (antibody)
- pH 7.4 RU [1]: 89.9 RU
- Steady State RU (pH 7.4) [2]: 89.9 RU
- Kd [3]: 14.8 nM
- Kd [4]: 14.8 nM

Substance: mAb1 AAA (T307A/E380A/N434A) (antibody)
- Steady State RU (pH 7.4) [5]: 23.6 RU
- Steady State RU (pH 7.4) [6]: 13.9 RU
- Kd [7]: 77 nM
- koff [7]: 0.0117 s⁻¹
- kon [7]: 157000 M⁻¹ s⁻¹
- Kd [8]: 1780 nM
- koff [8]: 0.14 s⁻¹
- kon [8]: 84000 M⁻¹ s⁻¹
- Kd [9]: 450 nM

Substance: mAb1 K288D (antibody)
- Kd [7]: 149 nM
- Kd [10]: 149 nM
- Steady State RU [11]: 21.9 RU
- Steady State RU [12]: 3.8 RU

Substance: mAb1 K288N (antibody)
- Kd [7]: 190 nM
- Kd [10]: 190 nM
- Steady State RU [11]: 20.4 RU

Substance: mAb1 M252Y (antibody)
- Steady State RU [13]: 50.5 RU
- Kd [7]: 25 nM
- Kd [8]: 3100 nM
- Kd [10]: 25 nM
- Kd [14]: 3100 nM
- Kd [15]: > 3000 nM
- Steady State RU [11]: 57.7 RU

Substance: mAb1 MDWN (T256D/T307W) (antibody)
- Steady State RU (pH 7.4) [5]: 42.1 RU
- Steady State RU (pH 7.4) [6]: 12.2 RU
- Kd [7]: 8.2 nM
- koff [7]: 0.0013 s⁻¹
- kon [7]: 16000 M⁻¹ s⁻¹
- Kd [8]: 169 nM
- kon [8]: 53000 M⁻¹ s⁻¹
- Kd [9]: 512 nM

Substance: mAb1 N434P (antibody)
- Kd [7]: 194 nM
- Kd [10]: 194 nM
- Steady State RU [11]: 4.3 RU
- Steady State RU [12]: 3.5 RU

Substance: mAb1 T307E (antibody)
- koff [21]: 0.00329 s⁻¹
- Kd [7]: 141 nM
- koff [7]: 0.006 s⁻¹
- kon [7]: 56000 M⁻¹ s⁻¹
- Kd [8]: 8130 nM
- koff [8]: 0.3 s⁻¹
- kon [8]: 44000 M⁻¹ s⁻¹
- Kd [10]: 141 nM
- koff [10]: 0.00603 s⁻¹
- kon [10]: 55500 M⁻¹ s⁻¹
- Kd [14]: 8130 nM
- koff [14]: 0.298 s⁻¹
- kon [14]: 43700 M⁻¹ s⁻¹
- Steady State RU [11]: 21.5 RU
- Steady State RU [12]: 5.7 RU

Substance: mAb1 T307F (antibody)
- Kd [7]: 131 nM
- Kd [10]: 131 nM
- Steady State RU [11]: 21.9 RU
- Steady State RU [12]: 4.9 RU

Substance: mAb1 T307M (antibody)
- Kd [7]: 279 nM
- Kd [10]: 279 nM
- Steady State RU [11]: 15.3 RU
- Steady State RU [12]: 4.4 RU

Substance: mAb1 T307Q (antibody)
- Steady State RU [13]: 31.3 RU
- Steady State RU [20]: 6.6 RU
- Kd [7]: 58 nM
- Kd [8]: 5720 nM
- Kd [10]: 58 nM
- Kd [14]: 5720 nM
- Kd [15]: > 3000 nM
- Steady State RU [11]: 24.3 RU
- Steady State RU [12]: 6.4 RU
